Consider ten molecules from US20200255529A1 (PIONYR IMMUNOTHERAPEUTICS, published 2020).

Usually EC50 stands for the concentration needed to bring the measured effect to its halfway point. One may read the Kd as the constant that tells how readily two partners part at equilibrium. Lower therefore signals a tighter complex.

The target of assay [1] is T1, hCD16 on NFAT-luciferase reporter Jurkat cells (Promega) (human, UniProt P08637 17-254). In words: cell-based or functional assay.
Assay [2] concerns the target T2, cynomolgus TREM1 on cells (cynomolgus, UniProt A0A2K5VHG8 21-233).
T2 construct: whole, on cells; Used for HEK293 cells over-expressing cynomolgus TREM1 and for primary cynomolgus monocytes; also called cynoTREM1; Cyno TREM1 cells
T2 sequence: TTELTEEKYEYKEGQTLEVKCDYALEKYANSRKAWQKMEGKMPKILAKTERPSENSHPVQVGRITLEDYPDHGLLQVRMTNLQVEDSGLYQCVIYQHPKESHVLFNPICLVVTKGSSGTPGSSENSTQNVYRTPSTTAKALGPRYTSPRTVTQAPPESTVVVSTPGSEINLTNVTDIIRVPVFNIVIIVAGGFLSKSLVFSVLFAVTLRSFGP
The experiment in a line: flow cytometry on HEK293 cells over-expressing cynomolgus TREM1. (Flow cytometry measures light scatter and fluorescence of single cells or particles in a stream.)

The target of assay [3] is T3, Chimeric cynomolgus TREM1-mIgG Fc (cynomolgus, UniProt A0A2K5VHG8 21-204).
T3 construct: not shown: mouse IgG Fc
T3 sequence: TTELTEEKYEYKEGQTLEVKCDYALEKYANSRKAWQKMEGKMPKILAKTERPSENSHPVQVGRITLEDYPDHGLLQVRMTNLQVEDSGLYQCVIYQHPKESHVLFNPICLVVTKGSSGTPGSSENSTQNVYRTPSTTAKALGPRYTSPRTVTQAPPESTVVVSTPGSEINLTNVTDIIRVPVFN
In words: SPR (Biacore T200), avid format: cynomolgus TREM1-mIgG Fc captured, antibody as analyte. The procedure:
All data were collected at 25° C. 10 mM HEPES pH 7.4, 150 mM NaCl, 3 mM EDTA, 0.05% (v/V) surfactant P20 was used as mobile buffer and for all dilution of mAbs. Anti-mouse Fc was immobilized on a CM4 biosensor chip (GE Healthcare) using amine coupling chemistry. Chimeric cynomolgus TREM1-mIgG Fc was captured on one flow cell and another flow cell (used as reference surface) was left blank. […] After each cycle, the surface was regenerated by injecting a glycine HCl buffer (10 mM, pH 2.0). BIAevaluation software was used to perform the kinetic evaluation. Kinetic evaluation was through generation of sensorgrams which were fitted with a 1:1 Langmuir binding model.

Assay [4] addresses T1, hCD16 on NFAT-luciferase reporter …. The experiment in a line: cell-based or functional assay. The source holds these as a separate data set.
Assay [5] concerns the target T2, cynomolgus TREM1 on cells. In words: flow cytometry on HEK293 cells over-expressing cynomolgus TREM1. This is another data set of the same source.
For assay [6], the target named is T4, mouse TREM1 on HEK293 cells (mouse, UniProt Q9JKE2 21-230).
T4 construct: also called mTREM1; mouse TREM1 over-expressing cells
T4 sequence: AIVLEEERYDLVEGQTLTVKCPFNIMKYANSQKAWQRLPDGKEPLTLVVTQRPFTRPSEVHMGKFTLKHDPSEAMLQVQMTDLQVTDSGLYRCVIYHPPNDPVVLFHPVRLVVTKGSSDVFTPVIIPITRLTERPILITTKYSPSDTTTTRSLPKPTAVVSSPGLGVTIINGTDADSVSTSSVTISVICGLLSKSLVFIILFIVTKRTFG
In words: flow cytometry on HEK293 cells over-expressing mouse TREM1, Alexa 647 anti-human Fcγ secondary antibody. The procedure:
HEK293 over-expressing cynomolgus or mouse TREM1 in log phase growth were harvested from culture, washed, and plated in 96 well U bottom plates at 1×10⁵ cells/well. […] An Alexa 647-conjugated anti-human Fcγ secondary antibody (Jackson Immunoresearch) diluted at 1:500 was used to detect bound primary antibody. The secondary antibody was incubated with the cells for 30 mins on ice. […] Fluorescence signal from bound antibody was assessed by flow cytometry (ThermoFisher Attune NxT). EC50 values were calculated in Prism Software (Graphpad).

The target of assay [7] is T5, recombinant human His-tagged FcγRI (human, UniProt P12314 16-288).
T5 construct: also called hFcγRI; not shown: His tag
In words: ELISA on plates coated with 1 ug/ml His-tagged human FcγRI (CD64), detection with HRP-conjugated anti-human F(ab')2. The procedure: 1 ug/ml of the indicated recombinant human His-tagged FcγR proteins (Sino Biologicals) were coated on MaxiSorp plates overnight at 4° c. […] Fc-mediated binding of the antibodies to the coated FcγR proteins was detected with a HRP-conjugated Fab′2 fragment against the Fab′2 portion of human IgG (Jackson Immunoresearch). TMB substrate (ThermoFisher) was used to quantitate the amount of HRP-conjugated secondary reagent bound to primary antibodies and H₃PO₄ was used to stop the reaction. Absorbance at 450 nm was measured using the Spectramax plate reader ([…]).
(In general: An ELISA detects its analyte on a solid surface through an enzyme-linked reagent.)

Assay [8] addresses T1, hCD16 on NFAT-luciferase reporter …. The experiment in a line: cell-based or functional assay. This is another data set of the same source.
For assay [9], the target named is T2, cynomolgus TREM1 on cells. The experiment in a line: flow cytometry on cynomolgus peripheral blood monocytes, experiment 1. The procedure: (§1) Fresh cynomolgus monkey blood (Worldwide Primates Inc) was red cell lysed and washed to enrich PBMC and granulocyte content. Cells were plated and Fc receptors were blocked with a combination of human serum (Jackson Immunoresearch) and a peptide-based FcR block solution (Innovex Biosciences). […] All antibodies used were directly conjugated and data was acquired by flow cytometry (ThermoFisher Attune NxT). EC50 values were calculated in Prism Software (Graphpad).

In assay [10] the target is T2, cynomolgus TREM1 on cells. The experiment in a line: flow cytometry on cynomolgus peripheral blood monocytes, experiment 2. The procedure: as §1
The target in assay [11] is T2, cynomolgus TREM1 on cells. The experiment in a line: flow cytometry on HEK293 cells over-expressing cynomolgus TREM1, experiment 1. The procedure:
(§2) HEK293 cells over-expressing cynomolgus TREM1 in log phase growth were harvested from culture, washed, and plated in 96 well U bottom plates at 1×10⁵ cells/well. […] An Alexa 647-conjugated anti-human Fcγ secondary antibody (Jackson Immunoresearch) diluted at 1:500 was used to detect bound primary antibody. The secondary antibody was incubated with the cells for 30 mins on ice. […] Fluorescence signal from bound antibody was assessed by flow cytometry (ThermoFisher Attune NxT). EC50 values were calculated in Prism Software (Graphpad).

The target in assay [12] is T2, cynomolgus TREM1 on cells. In words: flow cytometry on HEK293 cells over-expressing cynomolgus TREM1, experiment 2. The procedure: as §2
Assay [13] concerns the target T2, cynomolgus TREM1 on cells. The experiment in a line: flow cytometry on HEK293 cells over-expressing cynomolgus TREM1, experiment 3. The procedure: as §2
For assay [14], the target named is T3, Chimeric cynomolgus TREM1-mIgG Fc. The experiment in a line: SPR (Biacore T200), avid format: cynomolgus TREM1-mIgG Fc captured, antibody as analyte. This is another data set of the same source.
The target in assay [15] is T2, cynomolgus TREM1 on cells. In words: flow cytometry on HEK293 cells over-expressing cynomolgus TREM1; cells overexpressing cynomolgus TREM1; EC50 about 6-fold weaker than parent (4.61 nM).
Assay [16] addresses T6, Fc-tagged recombinant mouse TREM1 (R&D systems #1187-TR) (mouse, UniProt Q9JKE2 21-202).
T6 construct: Bought reagent; not shown: Fc tag
T6 sequence: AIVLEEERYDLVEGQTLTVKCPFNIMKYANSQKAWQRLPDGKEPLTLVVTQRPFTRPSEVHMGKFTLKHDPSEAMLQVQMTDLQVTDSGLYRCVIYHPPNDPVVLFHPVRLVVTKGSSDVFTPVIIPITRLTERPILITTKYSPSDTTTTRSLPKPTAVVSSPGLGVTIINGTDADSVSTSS
The experiment in a line: MSD ligand binding PK assay, plate coated with Fc-tagged recombinant mouse TREM1. The procedure:
A 96-well high-binding MSD plate was coated with Fc-tagged recombinant mouse TREM1 (R&D systems #1187-TR). After blocking, samples were added to the plate which bound the TREM1 protein. […] ECL signal was produced by the secondary antibody after the plate received an electric signal from an MSD plate reader. The ECL signal was detected and quantified by the plate reader.

Like-named read-outs stand apart in the source and are kept apart here.

T5 sequence (P12314 16-288 limits assumed): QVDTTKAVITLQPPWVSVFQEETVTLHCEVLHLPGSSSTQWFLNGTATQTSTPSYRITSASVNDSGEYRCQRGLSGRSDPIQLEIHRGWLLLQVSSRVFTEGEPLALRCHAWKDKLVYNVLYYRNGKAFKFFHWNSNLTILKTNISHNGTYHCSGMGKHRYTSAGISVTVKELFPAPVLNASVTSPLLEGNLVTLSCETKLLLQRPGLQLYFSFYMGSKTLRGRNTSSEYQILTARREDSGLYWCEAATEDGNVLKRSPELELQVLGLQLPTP
T1 sequence (P08637 17-254 F176V): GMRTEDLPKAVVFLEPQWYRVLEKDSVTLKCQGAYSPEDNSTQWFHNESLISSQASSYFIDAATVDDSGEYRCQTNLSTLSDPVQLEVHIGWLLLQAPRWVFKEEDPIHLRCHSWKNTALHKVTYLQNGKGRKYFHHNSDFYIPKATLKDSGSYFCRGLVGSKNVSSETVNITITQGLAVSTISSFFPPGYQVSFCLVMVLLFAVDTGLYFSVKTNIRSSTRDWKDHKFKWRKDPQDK

B1: afucosylated PI-4026-5-M100 (parent) (antibody, human IgG1, kappa)
heavy: not shown
light: DIQLTQSPSSLSASVGDRVTITCSASSSVSYMHWYQQKPGKAPKLLLYTTSNLASGVPSRFSGSGSGTDYTLTISSLQPEDFATYYCHQWSGYPTFGQGTKLEIKRTVAAPSVFIFPPSDEQLKSGTASVVCLLNNFYPREAKVQWKVDNALQSGNSQESVTEQDSKDSTYSLSSTLTLSKADYEKHKVYACEVTHQGLSSPVTKSFNRGEC
modifications: afucosylated Fc glycan (made in FUT8-deficient expi293 cells)
B1: the “hCD16 ADCC assay EC50” value in [1] worked out at 0.36 nM. In [2], this molecule came in with an EC50 of 6.61 nM. Besides, the Kd in [3] turned out to be 2.99 nM.

B2: PI-4026-5 (antibody, human IgG1, kappa)
heavy: not shown
light: B1 light
notes: fucosylated form made in expi293 cells
For the molecule B2, in [4], the “hCD16 ADCC assay EC50” value was 2.54 nM. The molecule further registered an EC50 in assay [5] of 4.61 nM. This molecule registered a Kd in [3] of 1.76 nM. Moreover, the binding result in assay [6] is listed as “no binding (tested: 6 ug/ml)”.

B3: PI-4026-5-M100L (fucosylated) (antibody, human IgG1, kappa)
heavy: not shown
light: B1 light
notes: hIgG1, fucosylated; also called fucosylated parent of PI64052
Regarding B3, the “hCD16 ADCC assay EC50” value in assay [4] turned out to be 5.86 nM. Moreover, the concentration for a half-maximal effect (EC50) in [5] came to 4.85 nM. For the same molecule, the affinity in [3], expressed as Kd, was 1.43 nM. Further, the binding result in assay [7] is reported as “binds”.

B4: PI64062 (afucosylated PI-4026-5-M100Q) (antibody, human IgG1, kappa)
heavy: not shown
light: B1 light
modifications: afucosylated Fc glycan (made in FUT8-deficient expi293 cells)
Take B4: the “hCD16 ADCC assay EC50” value in [1] stood at 0.29 nM. Besides, the “hCD16 reporter assay EC50 (nM), experiment 1” value in assay [8] turned out to be 0.08 nM. For the same molecule, the “hCD16 reporter assay EC50 (nM), experiment 2” value in assay [8] was 0.29 nM. In addition, the “hCD16 reporter assay EC50 (nM), experiment 3” value in assay [8] was found to be 0.09 nM. The EC50 is 2.07 nM in assay [2]; 7.94 nM in assay [9]; 7.84 nM in [10]; 2.07 nM in assay [11]; 3.25 nM in assay [12]; 7.89 nM in assay [13]. For the same molecule, the equilibrium dissociation constant (Kd) in assay [3] and in assay [14] was 0.45 nM each time. Moreover, the binding result in assay [7] is reported as “binds”.

B5: PI-4026-5-M100Q (fucosylated) (antibody, human IgG1, kappa)
heavy: not shown
light: B1 light
notes: hIgG1, fucosylated; also called fucosylated parent of PI64062
With B5, the “hCD16 ADCC assay EC50” value in [4] was found to be 8.6 nM. In assay [5], this molecule had an EC50 of 6.04 nM. Moreover, in assay [3], the Kd was determined as 0.66 nM. Besides, the binding result in assay [7] is “binds”.

B6: afucosylated PI-4026-5-M100I (antibody, human IgG1, kappa)
heavy: not shown
light: B1 light
modifications: afucosylated Fc glycan (made in FUT8-deficient expi293 cells)
Regarding B6, the “hCD16 ADCC assay EC50” value in assay [1] was 0.39 nM. This molecule had an EC50 in assay [2] of 22 nM. Moreover, in assay [3], the Kd came to 13.4 nM.

B7: PI64052 (afucosylated PI-4026-5-M100L) (antibody, human IgG1, kappa)
heavy: not shown
light: B1 light
modifications: afucosylated Fc glycan (made in FUT8-deficient expi293 cells)
Regarding B7, the “hCD16 ADCC assay EC50” value in assay [1] worked out at 0.28 nM. For the same molecule, the “hCD16 reporter assay EC50 (nM), experiment 1” value in assay [8] was 0.09 nM. Besides, the “hCD16 reporter assay EC50 (nM), experiment 2” value in [8] amounted to 0.28 nM. The “hCD16 reporter assay EC50 (nM), experiment 3” value in [8] worked out at 0.11 nM. Also, the EC50 in assay [2] stood at 3.62 nM; in assay [9], 7.84 nM; in [10], 7.16 nM; in assay [11], 3.62 nM; in [12], 4.67 nM; in [13], 42.8 nM. For the same molecule, the Kd in assay [3] and in assay [14] was 1.41 nM in each case. The binding result in assay [7] is recorded as “binds”.

B8: afucosylated PI-4026-5-M100E (antibody, human IgG1, kappa)
heavy: not shown
light: B1 light
modifications: afucosylated Fc glycan (made in FUT8-deficient expi293 cells)
As to B8, the “hCD16 ADCC assay EC50” value in assay [1] was found to be 0.33 nM. In [2], this molecule displayed an EC50 of 56 nM. In assay [3], this molecule displayed a Kd of 8.66 nM.

B9: PI-4026-5-M100I (fucosylated) (antibody, human IgG1, kappa)
heavy: not shown
light: B1 light
B9: the “hCD16 ADCC assay EC50” value in assay [4] was 6.92 nM. Moreover, the Kd in assay [3] was 11.8 nM. Besides, the EC50 in assay [15] was determined as 28.6 nM.

B10: afucosylated PI-4928 anti-TREM1 antibody (antibody, mouse IgG2a, kappa, V domains shown)
VH: QVQLKESGPGLVQPSQTLSLTCTVSGFSITSSNVYWFRQPPGKGLEWMGNIWGDGSTDYNSSLKSRLTLSRDTSKNQVFLKINSLQSEDTATYFCTRSWEYYFDHWGQGVVVTVSS
VL: DIVLTQSPALAVSPGQRATLSCRASQSVTLSNVNLMNWYQQKPGQQPKLLIYHASNLASGIPTRFSGSGSGTDFTLTIDPVQADDIAAYYCQQSGESPRTFGGGTKVELKR
modifications: afucosylated
notes: Anti-mouse TREM1 surrogate, mIgG2a
On to B10, for which, in assay [16], the binding result was “binds”.
